Values of other authors as cited in article PMC6628902.

Target: CXCL12 (Homo sapiens) (UniProt P48061)
Sequence (P48061 22-89): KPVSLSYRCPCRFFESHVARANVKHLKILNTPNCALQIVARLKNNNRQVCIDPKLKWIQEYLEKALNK

Sequence of CXCR4 (P61073 whole entry): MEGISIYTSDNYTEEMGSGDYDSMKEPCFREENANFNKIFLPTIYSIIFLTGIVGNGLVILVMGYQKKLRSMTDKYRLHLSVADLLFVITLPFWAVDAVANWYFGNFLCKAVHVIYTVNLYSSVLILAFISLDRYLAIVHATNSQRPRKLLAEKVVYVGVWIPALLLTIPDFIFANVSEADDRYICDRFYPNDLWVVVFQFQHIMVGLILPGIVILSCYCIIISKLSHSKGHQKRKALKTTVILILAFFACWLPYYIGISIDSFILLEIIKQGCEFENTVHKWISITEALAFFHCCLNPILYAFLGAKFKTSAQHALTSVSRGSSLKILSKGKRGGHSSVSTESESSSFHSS

Kd: 4.5 nM
Substance: CXCR4 (from UniProt P61073)
